{"source": "paper PMC4499870", "key": {"[1]": {"molecular_target": "CytERM-EBFP2 (Aequorea victoria)"}, "[2]": {"molecular_target": "CytERM-mTagBFP"}, "[3]": {"molecular_target": "CytERM-moxBFP (Aequorea victoria)"}}, "data": [{"substance": "CytERM-EBFP2", "values": [{"measurement": "% cells with OSER structures (CytERM assay, n=138 cells)", "setting": "[1]", "result": 63.7, "unit": "%"}]}, {"substance": "CytERM-mTagBFP", "values": [{"measurement": "% cells with OSER structures (CytERM assay, n=69 cells)", "setting": "[2]", "result": 43.5, "unit": "%"}]}, {"substance": "CytERM-moxBFP", "values": [{"measurement": "% cells with OSER structures (CytERM assay, n=109 cells)", "setting": "[3]", "result": 0.9, "unit": "%"}]}]}
